Data published in the supplement of paper PMC11316812.
± gives the standard deviation of the averaged measurements.

Legend:
hTERT-HMEC = experiment: percentage of EdU-negative (G0-arrested) nuclei per well, 72 h; higher = more G0 arrest; settings: reference: sequence is the full UniProt precursor, the tested protein was the secreted form or ectodomain
MCF7 = experiment: as above; settings: reference: sequence is the full UniProt precursor, the tested protein was the secreted form or ectodomain
[1] = protein concentration 0.03125 µM
[2] = protein concentration 0.3125 µM
[3] = protein concentration 0.01225 µM
[4] = protein concentration 0.1225 µM
[5] = protein concentration 0.0225 µM
[6] = protein concentration 0.01775 µM
[7] = protein concentration 0.1775 µM
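Note: secreted proteins added to cultured cells, EdU pulse at the end, nuclei found by Hoechst imaging, EdU status from nuclear versus surrounding ring intensity ratio, PBS as neutral control.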

MIPAKDMAKVMIVMLAICFLTKSDGKSVKKRSVSEIQLMHNLGKHLNSMERVEWLRKKLQDVHNFVALGAPLAPRDAGSQRPRKKEDNVLVESHEKSLGEADKADVNVLTKAKSQ
percentage of EdU-negative (hTERT-HMEC; [1]): 4.88 ± 0.23%
percentage of EdU-negative (hTERT-HMEC; [2]): 6.37 ± 2%
percentage of EdU-negative (MCF7; [1]): 25.8 ± 0.95%
percentage of EdU-negative (MCF7; [2]): 25 ± 0.47%

MIPFLPMFSLLLLLIVNPINANNHYDKILAHSRIRGRDQGPNVCALQQILGTKKKYFSTCKNWYKKSICGQKTTVLYECCPGYMRMEGMKGCPAVLPIDHVYGTLGIVGATTTQRYSDASKLREEIEGKGSFTYFAPSNEAWDNLDSDIRRGLESNVNVELLNALHSHMINKRMLTKDLKNGMIIPSMYNNLGLFINHYPNGVVTVNCARIIHGNQIATNGVVHVIDRVLTQIGTSIQDFIEAEDDLSSFRAAAITSDILEALGRDGHFTLFAPTNEAFEKLPRGVLERIMGDKVASEALMKYHILNTLQCSESIMGGAVFETLEGNTIEIGCDGDSITVNGIKMVNKKDIVTNNGVIHLIDQVLIPDSAKQVIELAGKQQTTFTDLVAQLGLASALRPDGEYTLLAPVNNAFSDDTLSMDQRLLKLILQNHILKVKVGLNELYNGQILETIGGKQLRVFVYRTAVCIENSCMEKGSKQGRNGAIHIFREIIKPAEKSLHEKLKQDKRFSTFLSLLEAADLKELLTQPGDWTLFVPTNDAFKGMTSEEKEILIRDKNALQNIILYHLTPGVFIGKGFEPGVTNILKTTQGSKIFLKEVNDTLLVNELKSKESDIMTTNGVIHVVDKLLYPADTPVGNDQLLEILNKLIKYIQIKFVRGSTFKEIPVTVYTTKIITKVVEPKIKVIEGSLQPIIKTEGPTLTKVKIEGEPEFRLIKEGETITEVIHGEPIIKKYTKIIDGVPVEITEKETREERIITGPEIKYTRISTGGGETEETLKKLLQEEVTKVTKFIEGGDGHLFEDEEIKRLLQGDTPVRKLQANKKVQGSRRRLREGRSQ
percentage of EdU-negative (hTERT-HMEC; [3]): 5.41 ± 1.4%
percentage of EdU-negative (hTERT-HMEC; [4]): 5 ± 1.3%
percentage of EdU-negative (MCF7; [3]): 25.5 ± 0.97%
percentage of EdU-negative (MCF7; [4]): 27.4 ± 1.6%

MIPGGLSEAKPATPEIQEIVDKVKPQLEEKTNETYGKLEAVQYKTQVVAGTNYYIKVRAGDNKYMHLKVFKSLPGQNEDLVLTGYQVDKNKDDELTGF
percentage of EdU-negative (hTERT-HMEC; [1]): 5.99 ± 0.58%
percentage of EdU-negative (hTERT-HMEC; [2]): 5.5 ± 0.67%
percentage of EdU-negative (MCF7; [1]): 26.6 ± 0.69%
percentage of EdU-negative (MCF7; [2]): 23.6 ± 2.5%

MIPLLLAALLCVPAGALTCYGDSGQPVDWFVVYKLPALRGSGEAAQRGLQYKYLDESSGGWRDGRALINSPEGAVGRSLQPLYRSNTSQLAFLLYNDQPPQPSKAQDSSMRGHTKGVLLLDHDGGFWLVHSVPNFPPPASSAAYSWPHSACTYGQTLLCVSFPFAQFSKMGKQLTYTYPWVYNYQLEGIFAQEFPDLENVVKGHHVSQEPWNSSITLTSQAGAVFQSFAKFSKFGDDLYSGWLAAALGTNLQVQFWHKTVGILPSNCSDIWQVLNVNQIAFPGPAGPSFNSTEDHSKWCVSPKGPWTCVGDMNRNQGEEQRGGGTLCAQLPALWKAFQPLVKNYQPCNGMARKPSRAYKI
percentage of EdU-negative (hTERT-HMEC; [5]): 5.36 ± 0.56%
percentage of EdU-negative (hTERT-HMEC; protein concentration 0.225 µM): 6.55 ± 0.55%
percentage of EdU-negative (MCF7; [5]): 24.5 ± 0.64%
percentage of EdU-negative (MCF7; protein concentration 0.225 µM): 26.5 ± 3%

MIRAAPPPLFLLLLLLLLLVSWASRGEAAPDQDEIQRLPGLAKQPSFRQYSGYLKGSGSKHLHYWFVESQKDPENSPVVLWLNGGPGCSSLDGLLTEHGPFLVQPDGVTLEYNPYSWNLIANVLYLESPAGVGFSYSDDKFYATNDTEVAQSNFEALQDFFRLFPEYKNNKLFLTGESYAGIYIPTLAVLVMQDPSMNLQGLAVGNGLSSYEQNDNSLVYFAYYHGLLGNRLWSSLQTHCCSQNKCNFYDNKDLECVTNLQEVARIVGNSGLNIYNLYAPCAGGVPSHFRYEKDTVVVQDLGNIFTRLPLKRMWHQALLRSGDKVRMDPPCTNTTAASTYLNNPYVRKALNIPEQLPQWDMCNFLVNLQYRRLYRSMNSQYLKLLSSQKYQILLYNGDVDMACNFMGDEWFVDSLNQKMEVQRRPWLVKYGDSGEQIAGFVKEFSHIAFLTIKGAGHMVPTDKPLAAFTMFSRFLNKQPY
percentage of EdU-negative (hTERT-HMEC; [5]): 5.3 ± 0.043%
percentage of EdU-negative (hTERT-HMEC; protein concentration 0.225 µM): 5.82 ± 0.15%
percentage of EdU-negative (MCF7; [5]): 25.2 ± 3.7%
percentage of EdU-negative (MCF7; protein concentration 0.225 µM): 25.1 ± 0.47%

MIRTLLLSTLVAGALSCGDPTYPPYVTRVVGGEEARPNSWPWQVSLQYSSNGKWYHTCGGSLIANSWVLTAAHCISSSRTYRVGLGRHNLYVAESGSLAVSVSKIVVHKDWNSNQISKGNDIALLKLANPVSLTDKIQLACLPPAGTILPNNYPCYVTGWGRLQTNGAVPDVLQQGRLLVVDYATCSSSAWWGSSVKTSMICAGGDGVISSCNGDSGGPLNCQASDGRWQVHGIVSFGSRLGCNYYHKPSVFTRVSNYIDWINSVIANN
percentage of EdU-negative (hTERT-HMEC; [6]): 6.83 ± 1.7%
percentage of EdU-negative (hTERT-HMEC; [7]): 24.7 ± 3.9%
percentage of EdU-negative (MCF7; [6]): 23.79 ± 0.23%
percentage of EdU-negative (MCF7; [7]): 29.6 ± 2.2%

MIRTLLLSTLVAGALSCGVSTYAPDMSRMLGGEEARPNSWPWQVSLQYSSNGQWYHTCGGSLIANSWVLTAAHCISSSGIYRVMLGQHNLYVAESGSLAVSVSKIVVHKDWNSDQVSKGNDIALLKLANPVSLTDKIQLACLPPAGTILPNNYPCYVTGWGRLQTNGALPDDLKQGQLLVVDYATCSSSGWWGSTVKTNMICAGGDGVICTCNGDSGGPLNCQASDGRWEVHGIGSLTSVLGCNYYYKPSIFTRVSNYNDWINSVIANN
percentage of EdU-negative (hTERT-HMEC; [5]): 4.64 ± 0.17%
percentage of EdU-negative (hTERT-HMEC; protein concentration 0.225 µM): 5.75 ± 0.53%
percentage of EdU-negative (MCF7; [5]): 22.3 ± 2.4%
percentage of EdU-negative (MCF7; protein concentration 0.225 µM): 26.3 ± 0.6%
